Data on 3 compounds can be found in US20250332299A1, “COMPOUND TARGETING SSTR2, PREPARATION METHOD THEREFOR AND USE THEREOF” (YANTAI LANNACHENG BIOTECHNOLOGY CO., LTD., priority 2022, published 2025).

Series [1] relates to AR42J tumor. Nature of the series: MicroPET imaging in AR42J tumor-bearing mice. The series is classed as in vivo. The settings on record: unlabeled compound injected simultaneously with ^68Ga-DOTA-TATE, PET. As to the method:
^68Ga-TATE-EB-01 was prepared according to the method in Example 2. […] Results are shown in FIG. 4, FIG. 5, FIG. 6 and FIG. 7.

For series [2] the following is noted: in vivo; cited from earlier work.
Series [3] can be described thus: in vivo. Set-up: species or system mice. The settings on record: mouse, iv, 1.48 Mbq, total radioactivity. How it is done: Organs and tumor tissues of interest were collected and weighed. The radioactivity was detected by a γ counter, and biological distribution results were calculated as a percent of an injection dose per gram of tissue (% ID/g).

For `Cc1cc(-c2ccc(NC(=O)[C@H](CCCCNC(=O)CCOCCOCCC(=O)N[C@H](Cc3ccccc3)C(=O)N[C@H]3CSSC[C@@H](C(=O)N[C@H](C(=O)O)[C@@H](C)O)NC(=O)[C@H]([C@@H](C)O)NC(=O)[C@H](CCCCN)NC(=O)[C@@H](Cc4c[nH]c5ccccc45)NC(=O)[C@H](Cc4ccc(O)cc4)NC3=O)NC(=O)CN3CCN(CC(=O)O)CCN(CC(=O)O)CCN(CC(=O)O)CC3)c(C)c2)ccc1N=Nc1ccc2c(S(=O)(=O)O)cc(S(=O)(=O)O)c(N)c2c1O` (single isomer, unassigned) [TATE-EB-01], the “inhibition of tumor uptake of ^68Ga-DOTA-TATE” value in series [1] was “significantly inhibit tumor uptake”. Turning to `Cc1cc(-c2ccc(NC(=O)[C@H](CCCCNC(=O)CCN3C(=O)CC(SCCC(=O)N[C@H](Cc4ccccc4)C(=O)N[C@H]4CSSC[C@@H](C(=O)N[C@H](C(=O)O)[C@@H](C)O)NC(=O)[C@H]([C@@H](C)O)NC(=O)[C@H](CCCCN)NC(=O)[C@@H](Cc5c[nH]c6ccccc56)NC(=O)[C@H](Cc5ccc(O)cc5)NC4=O)C3=O)NC(=O)CN3CCN(CC(=O)O)CCN(CC(=O)O)CCN(CC(=O)O)CC3)c(C)c2)ccc1N=Nc1ccc2c(S(=O)(=O)O)cc(S(=O)(=O)O)c(N)c2c1O` (single isomer, unassigned) [^177Lu-EB-TATE, metal not drawn], in series [2], the “half-life in the blood” value was 9.47 h and the “half-life in the blood relative to Lutathera” value is “about 4 times”. One may read the tissue uptake as the share of the injected amount in each gram of the tissue. `Cc1cc(-c2ccc(NC(=O)[C@H](CCCCNC(=O)CCOCCOCCC(=O)N[C@H](Cc3ccccc3)C(=O)N[C@H]3CSSC[C@@H](C(=O)N[C@H](C(=O)O)[C@@H](C)O)NC(=O)[C@H]([C@@H](C)O)NC(=O)[C@H](CCCCN)NC(=O)[C@@H](Cc4c[nH]c5ccccc45)NC(=O)[C@H](Cc4ccc(O)cc4)NC3=O)NC(=O)CN3CCN(CC(=O)O)CCN(CC(=O)O)CCN(CC(=O)O)CC3)c(C)c2)ccc1N=Nc1ccc2c(S(=O)(=O)O)cc(S(=O)(=O)O)c(N)c2c1O` [^177Lu-TATE-EB-01, metal not drawn]: in series [3], the tissue uptake at 72 h came to 158 ± 20 %ID/g and the tissue uptake at 96 h stood at 112 ± 20.6 %ID/g.
